According to the nanobody polyreactivity screen of Harvey et al. (2022):

Experiment: yeast display, Sf9 membrane polyspecificity reagent, FACS + sequencing; frameworks hold sequencing errors
Procedure, shortened: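 A nanobody's polyreactivity label depends on the gate it was sorted from. Yeast display cells were stained with 10% biotinylated, detergent-solubilized Sf9 membrane reagent for 1 hour at 4 °C, enriched on streptavidin microbeads and sorted by FACS. The low and high (top ~1%) gates were set on anti-HA fluorescence for expression and streptavidin fluorescence for reagent binding.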

Sequence | polyreactivity (PSR sort gate)
QVQLVESGGGLVQAGGSLRLSCAASGRIFKWYAMGWYRQAPGKERELVAAITWRGGSTNYADSVKGRFTISRDNAKNTVYLQMNSLKPEDTAVYYCAVGTVFLTYRGYEYWGQGTQVTVSS | high polyreactivity
QVQIVDSGGGLVHAGGSLRLSCADSGSIFSGNAKAWYIQATGKERELVAAISRSGGSTYYADSVKGRFTISRDNAKNTVYLQMNSLKPEDTAVYYCNAGRYRAGGWGVGEGYWGQGTQVTVSS | high polyreactivity
QVQLVESGGGLVQAGGSLRLSCAASGSIFFLYAMGWYRQAPGKERELVAAISRSGVSTYYADSVKGRFTISRDNAKNTVYLQMNSLKPEDTAVYYCNRRVPVTRSRYYYWGQGTQVTVSS | high polyreactivity
QVQLVESGGGLVQAGGSLRLSSAASGSIFPLYAMGWYRQAPGKERELVATINRRTGSTYADSVKGRFTISRDNAKNTVYLQMKSLKPEYTAVYYCNAADNYVLFYKTRIYNYWGQGTQVTVSS | high polyreactivity
QVQLEESGGGLVQAGGSLRLTCAASGSTVDKNDMGWYRPEPGQESELVAASTSSGSSTYYADSVKGRFTISRDNAKNTVYLQMNSLKPEDTAVYYCAADKYYYDRLSPSGDYLGQGTQVTVSS | low polyreactivity
QVQIVESGGGLVQAGGSLRLSCAASGSTFDGNAMGWYRQAPGKERELVATINSDDSKNYSDSVKGSFTISRDNAKNTVYLQMNSLKPEDTAVYYCAAVVSVPELYDYWGQGTQVTVSS | low polyreactivity
QDQLVESGGGLVQAGGSLRLSCAASGSTFTPNALGWYRQPPGKQRELVAAISTRGSSTYYADSVKGRFTISRDNAKNTVYLQMNRLKPEDTAVYSCAAPFKYGLSYGSWYGYCGQGTQVTVSS | high polyreactivity
QVQLVESGGGLVQAGGSLLLSCDASGNTFIENDMGWYIQAHGKERELVDPIDTGGYTYYADSVKGRFTISRDNAKNTVYLQMNSLKPDDTAVYYCTAVGLYLYRYKFGYLGKIGPGYDYWGQGTQVTVSS | low polyreactivity
QVQIVESGGGLVQAGGSLRLSCAASGSTFGGNAMGWYRQAPGKERELVASITSSGGSTYYADSVKGRFTISRDNAKNTVYLQMNSLKPEDTAVYYCAAGKWYRSPWKYDYWGQGTQVTVSS | low polyreactivity
QVQLVESGGGLVQAGGSLRLSCAASGRTFWYYAMGWYRQAPGKERELVAAISYSGDGTYYADSVKGRVTISRDNAKNTVYLPMHSLKPEDTAVYYCAAEWYEPTLPTAWSEYEYWGQGTQVTVSS | high polyreactivity
QVQLVESGGGLVQAGGSLRLSCAASGFTFFIYAMGWYRQAPGKERELVAAISWRGDRTYYADSVKGRFTISRDNAKNTVYLQMNSMKPEDTAVYYCAKSVWRRVYYARYDDRHNYWGQGTQVTVSS | high polyreactivity
QVQLVESGGCLVQEGGSLRLSCDASGRTFLTYAMGWYRQAPGKERELVAAITDGDSTNYADSVKGRFTISRDNAKNNVYLQMNSLKPEDTAVYYCNADSLAYRYYYWGQGTQVTVSS | high polyreactivity
QVQLVESGGGLVQAGASLRLSCAASGRTFRYYAMGWYRQAPGKERELVAAINTGSSTYYADSVKGRFTISRDNAKYTVYLQMNSLKPEDTAVYYCNVFQGTRYGYWGQGTKVTVSS | low polyreactivity
QVQLVESGGGLVQAGGSLRLSCAASGGTFRVYAMGWYRQAPGKERELVAAITGRGGSTYYADSVKGRFTISRDNAKNTVYLQMNSLKPEDTAVYYCAAQAYWDFGSVARRDSWGQGTQVTVSS | low polyreactivity
QVQLVESGGGLVQAGGSLRLSCAASGRIFYNYAMGWYRQAPGKERELVAAITGGASTYADSVKGRFTISRDNAKNTVYLQMNRLKPEDTAVYYCAVDYYTYSLASGRTRMDYWGQGTQVTVSS | high polyreactivity
QVQLVESGGGLVQAGGSLRLSCAASGRIFPTNAMGWYRQAPGKERELVASITRSGSTYYADSVTGRFTISRDNAKNTVYLQMNSLKPEDTAVYYCAAYAYIFLDWGGYPYYLYEYDYWGQGTQVTVSS | low polyreactivity
QVQLVESGGGLVQAGGSLRLSCAASGSTFPYNAMGWYRQAPGKEREMVAAITYSGGSTYYADSVKGRFTISRDNAKNTVYLQMNSLKPEDTAVYYCNADDSTTYDYWGQGTQVTVSS | low polyreactivity
